From article PMC4376295 (Nature communications, 2014) come the findings set out here.

Where a chain is given by its changes, count along the chain named. Names and notes keep the numbering of the source.

The target in data set [1] is T1, HerA harbouring both M51L and M82L mutations (Sulfolobus solfataricus, UniProt Q97WG8 1-500, M51L | M82L).
T1 sequence (looked up): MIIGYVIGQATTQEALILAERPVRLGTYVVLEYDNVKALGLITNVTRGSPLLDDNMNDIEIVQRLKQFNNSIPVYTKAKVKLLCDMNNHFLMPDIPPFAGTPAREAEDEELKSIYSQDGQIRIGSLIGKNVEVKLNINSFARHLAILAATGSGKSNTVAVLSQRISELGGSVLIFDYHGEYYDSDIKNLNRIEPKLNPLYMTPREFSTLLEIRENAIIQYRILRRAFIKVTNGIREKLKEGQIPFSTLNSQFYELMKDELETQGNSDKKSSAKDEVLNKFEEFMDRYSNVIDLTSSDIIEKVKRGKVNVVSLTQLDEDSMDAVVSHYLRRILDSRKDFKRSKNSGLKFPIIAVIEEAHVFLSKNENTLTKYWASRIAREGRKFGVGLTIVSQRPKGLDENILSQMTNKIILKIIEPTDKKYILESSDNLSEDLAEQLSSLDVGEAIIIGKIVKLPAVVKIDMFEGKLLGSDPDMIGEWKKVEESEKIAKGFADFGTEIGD
Put plainly: SEC-coupled SAXS.

The data set “SEC-coupled SAXS” concerns the molecule itself. Kind of data set: SEC-coupled SAXS.
Data set [2] concerns the target T2, native HerA (S. solfataricus, Sso2251) (Sulfolobus solfataricus, UniProt Q97WG8 1-500).
T2 sequence (looked up): T1 sequence (looked up) with L51M, L82M
Put plainly: SEC.

B1: NurA D58A (nuclease inactivated) (enzyme, Sulfolobus solfataricus, UniProt Q97WH1 1-339, looked up)
chain: MIRKIYDKLVESHNEIKNQIYNIANYLKQEIQDKVNEYWNEYVINHEQSETCKFVAIAGGSFGRPMRIGIVYAVGAESVIGDNKGVKTLSEDGQIGIFKPGNDAQERISLLMEALELSLALRDGSKGDYILMDGSLSKKIGNKVDIQQFSDEELKLIRNVDLNGIISIKDERKMRDLLMLLNQFLVSKIIEEYDGNVLWISKVSRGRDLFGTDYPDITVLELFTEKRGFSKLIIKNIDIEKISEIPEIEVLRKMEYTTFYTRLDNGKRVIRVDIVGRVDEKIVKEIMDRLSGVSIKGYPFPLLKAHMDVRFSAMDREKIIKLVGSKLHKDIEWWPSQFY
Turning to B1, the binding result (in data set [1]; in “SEC-coupled SAXS”) was “binds” in each case.

B2: native NurA (S. solfataricus) (enzyme, Sulfolobus solfataricus, UniProt Q97WH1 1-339, looked up)
chain: B1 chain with A58D
Turning to B2, the binding result in data set [2] is listed as “binds”.
